The record followed here is patent publication US20180016324A1 (Regeneron, published 2018).

In assay [1] the target is T1, ZIKV prM/E polyprotein on virus-like particles (VLPs) from HEK293T/17 cells (Zika virus, UniProt A0A024B7W1 123-795).
T1 construct: also called ZIKV prM/E VLPs; Zika prM/E VLPs
In words: MSD ECL, VLPs on plate.

In assay [2] the target is T2, ZIKV (prM80E) with a C-terminal myc-myc-hexahistidine tag (Zika virus, UniProt A0A024B7W1 104-694).
T2 construct: also called ZIKV (prM80E)-mmH; ZIKV-mmH
As to the kind of experiment: SPR, mAb captured, 37C.

In assay [3] the target is T2, ZIKV (prM80E) with a C-terminal …. In words: SPR, mAb captured, 37C. The source holds these as a separate data set. A general note: In SPR one partner is held on a chip, and binding of the other changes the refractive index at the surface.
The target is the same in assay [4]. As to the kind of experiment: SPR, mAb captured, 25C.
Assay [5] shares this target. As to the kind of experiment: SPR, mAb captured, 37C. This is another data set of the same source.
The target of assay [6] is ZIKV envelope glycoprotein (E) of strain MR766 (Uganda 1947) (Zika virus, UniProt Q32ZE1 291-790). As to the kind of experiment: cell-based or functional assay.
The target of assay [7] is ZIKV envelope glycoprotein (E) of strain PRVABC59 (Puerto Rico 2015) (Zika virus). In words: cell-based or functional assay.
The target of assay [8] is ZIKV envelope glycoprotein (E) of strain FLR (Colombia 2015) (Zika virus). In words: cell-based or functional assay.
The target in assay [9] is T2, ZIKV (prM80E) with a C-terminal …. In words: SPR, mAb captured, 37C, pH 7.4.
Assay [10] concerns the target ZIKV E protein with escape mutations T311I and K369E (Zika virus). As to the kind of experiment: cell-based or functional assay.
The target in assay [11] is T2, ZIKV (prM80E) with a C-terminal …. In words: SPR, mAb captured, 37C, pH 6.0 chase.
The target is the same in assay [12]. In words: SPR, mAb captured, 37C, pH 5.0 chase.
The target is the same in assay [13]. As to the kind of experiment: SPR, mAb captured, 37C, pH 5.5 chase.

B1: H4H25703N (antibody, V domains shown)
VH: QVQLVESGGGVVQPGRSLRLSCAASGFTFNYYGMHWVRQAPGKGLEWVAVISYDGTNKYYADSVKGRFTTSRDNSKNTLYLQMNSLRAEDTALYYCARDRGGRFDYWGQGIQVTVSS
VL: EIVLTQSPDTLSLSPGERATLSCRASQSVSSNYLAWYQQKPGQAPRLLIYGASSRATGIPDRFSGSGSGTDFTLTISRLEPEDFAVYYCQRYGTSPLTFGGGTKVEIKR
For the molecule B1, a half-maximal response in assay [1] (EC50) required 0.0846 nM. Further, the “t½ pH 7.4/t½ pH 6.0” value in [2] stood at 1.3. For the same molecule, in [3], the “t½ pH 7.4/t½ pH 5.0” value turned out to be 1.3. The “t½ pH 7.4/t½ pH 5.5” value in assay [3] came to 1.5. Also, the figures for the Kd in assay [4] and in assay [5] were 0.542 nM and 2.39 nM, respectively. Besides, the koff (commonly a measure of how fast the partners let go of each other) worked out at 0.000307 s⁻¹ in assay [4]; 0.00177 s⁻¹ in assay [5]; 0.00211 s⁻¹ in [9]; 0.00283 s⁻¹ in [11]; 0.0028 s⁻¹ in [12]; 0.00326 s⁻¹ in assay [13]. Besides, the kon (commonly a measure of how fast the partners come together) in assay [4] amounted to 566000 M⁻¹ s⁻¹; in assay [5] it was 738000 M⁻¹ s⁻¹. In addition, the t½ (commonly the time in which the quantity being followed falls by half) in [4] is 37.6 min; in [5], 6.5 min; in assay [9], 5.47 min; in assay [11], 4.08 min; in assay [12] it was 4.1 min; in assay [13], 3.54 min. Further, the entries for the “neutralization IC50, Vero cells” value in assay [6], in [7] and in [8] were 0.0445 nM, 0.251 nM and 0.0619 nM, respectively. Moreover, the “IC50 (read off the curve)” value in assay [10] was roughly 1 nM.
